The text below walks through data of PMC3953254.

In this assay the target is SadB (cytosolic construct without signal peptide, Cys-22 replaced by serine) (S. typhimurium) (UniProt Q8ZL65). Nature of the assay: crystal structure; SadB at 8 mg/ml in 20 mM MOPS/HCl, pH 7, 50 mM NaCl; sitting drop at 20 °C; reservoir 0.2 M lithium sulfate, 0.1 M Tris, pH 8.5, 20% (w/v) PEG 4000; 2.45 Å.

The substance “SadB (cytosolic construct without signal peptide, Cys-22 replaced by serine) (from UniProt Q8ZL65 22-227) (domain or fragment)” returned a stoichiometry N of 3.
